Measured values from article PMC12331169, “Structural and functional studies of rabbit SAMD9 reveal a distinct tRNase module that underlies the antiviral activity”.

Target: T1, rSAMD9 158-389 (tRNase domain) (Oryctolagus cuniculus (European rabbit; …, UniProt G1U2M9 158-389)
T1 sequence: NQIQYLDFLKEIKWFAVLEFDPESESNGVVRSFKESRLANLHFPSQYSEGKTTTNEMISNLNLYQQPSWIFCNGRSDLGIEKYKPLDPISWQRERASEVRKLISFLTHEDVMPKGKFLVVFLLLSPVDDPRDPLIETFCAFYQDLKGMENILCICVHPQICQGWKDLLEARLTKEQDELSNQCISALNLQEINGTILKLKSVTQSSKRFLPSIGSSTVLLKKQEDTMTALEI
Test: EMSA; stable complex predominant at 2:1 protein:dsDNA; no DNA density seen in the crystal; EMSA on 0.8% native agarose gel, EtBr then Coomassie stain; buffer, salt, pH and temperature not given (as in earlier paper)
Details: protein: recombinant; tags: 6xHis-SUMO removed by Ulp1; chain copies: 2; blunt

B1: 26-nt dsDNA (dsDNA)
DNA 1: TATTCAAATTAATGATTTATTCAATT
DNA 2: AATTGAATAAATCATTAATTTGAATA
B1: binds.
